Results taken from doi:10.1101/639948 (bioRxiv, 2019).

B1: Sam50 (natural protein)
chain: MGTVHARSLEPLPSSGTDFGALGEEAEFVEVEPEAKQEILENKDVVVQHVHFDGLGRTKDDIIICEIGEVFKAKNLIEVMRRSHEAREKLLRLGIFRQVDVLIDTCHGEDALPNGLDVTFEVTELRRLTGSYNTMVGNNEGSMVLGLKLPNLLGRAEKVTFQFSYGTKETSYGLSFFKPQPGNFERNFSVNLYKVTGQFPWSSLRETDRGVSAEYSFPLWKTSHTVKWEGVWRELGCLSRTASFAVRKESGHSLKSSLSHAMVIDSRNSSILPRRGALFKVNQELAGYTGGDVSFIKEDFELQLNKPLALDSVFSTSLWGGMLVPIGDKPSSIADRFYLGGPTSVRGFSMHSIGPQSEGDYLGGEAYWAGGLHLYTPLPFRPGQGGFGELFRTHFFLNAGNLCNLNYGEGPKAHIRKLAECIRWSYGAGVVLRLGNIARLELNYCIPMGVQGGDRICDGVQFGAGIRFL
B2: Mic19/CHCHD3 (natural protein)
chain: MGGTASTRRVTFEADENENITVVKGIRLSENVIDRMKESSPSGSKSQRYSSVYGASVSDEDLKRRVAEELALEQAKKESEHQRRLKQARDLERERAAANEQLTRAVLRERISSEEERMKAKHLARQLEEKDRVMRKQDAFYKEQLARLEERSSEFYKVTTEEYQKAAEEVEAKFKRYEYHPVCADLQTKILQCYRQNTQQTLSCSALASQYMHCVNHAKQSMLEKGG

Target: native Miro2 (UniProt Q8JZN7 1-620)
Test: proximity ligation

Sequence of native Miro2 (Q8JZN7 whole entry): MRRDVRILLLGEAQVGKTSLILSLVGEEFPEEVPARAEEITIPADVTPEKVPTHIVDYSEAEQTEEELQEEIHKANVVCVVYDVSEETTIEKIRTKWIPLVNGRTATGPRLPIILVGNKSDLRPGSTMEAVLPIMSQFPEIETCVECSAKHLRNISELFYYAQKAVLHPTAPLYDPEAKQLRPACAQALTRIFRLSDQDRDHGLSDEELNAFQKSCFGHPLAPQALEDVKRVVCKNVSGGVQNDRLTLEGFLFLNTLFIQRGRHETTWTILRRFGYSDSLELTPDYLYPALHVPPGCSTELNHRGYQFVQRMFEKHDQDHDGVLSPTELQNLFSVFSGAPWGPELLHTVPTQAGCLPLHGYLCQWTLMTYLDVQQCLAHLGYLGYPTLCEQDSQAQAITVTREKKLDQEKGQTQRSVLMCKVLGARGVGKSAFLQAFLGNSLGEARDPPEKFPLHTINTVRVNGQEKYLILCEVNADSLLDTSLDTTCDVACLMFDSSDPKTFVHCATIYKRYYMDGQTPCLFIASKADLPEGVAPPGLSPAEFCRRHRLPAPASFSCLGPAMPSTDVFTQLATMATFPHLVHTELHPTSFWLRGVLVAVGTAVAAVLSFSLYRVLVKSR

Binder	fold enrichment of PLA signal over single antibodies [fold]
B1	4
B2	4
